According to publication PMC7615196, “PIM1 controls GBP1 activity to limit self-damage and to guard against pathogen infection” (Science (New York, N.Y.), 2023):

How the values were obtained:
[1] = molecular target: recombinant GBP1 (non-phosphorylated) (human) (UniProt P32455); assay: SEC; GBP1 dimerization: samples without nucleotide or incubated with 1 mM GTP or 1 mM GDP + 10 mM AlF3; free GBP1 or phosphorylated, 14-3-3σ-bound GBP1
14-3-3β = 14-3-3β (UniProt P31946); assay: co-IP of Flag-GBP1 and HA-14-3-3; conditions: reference: wild type; sites S156
14-3-3γ = 14-3-3γ (UniProt P61981); assay: co-IP of Flag-GBP1 and HA-14-3-3; conditions: reference: wild type; sites S156
14-3-3ε = 14-3-3ε (UniProt P62258); assay: co-IP of Flag-GBP1 and HA-14-3-3; conditions: reference: wild type; sites S156
14-3-3η = 14-3-3η (UniProt Q04917); assay: co-IP of Flag-GBP1 and HA-14-3-3; conditions: reference: wild type; sites S156
14-3-3σ = 14-3-3σ (UniProt P31947); assay: co-IP of Flag-GBP1 and HA-14-3-3; conditions: reference: wild type; sites S156
14-3-3ζ = 14-3-3ζ (UniProt P63104); assay: co-IP of Flag-GBP1 and HA-14-3-3; conditions: reference: wild type; sites S156
14-3-3θ = 14-3-3θ (UniProt P27348); assay: co-IP of Flag-GBP1 and HA-14-3-3; conditions: reference: wild type; sites S156
[2] = molecular target: endogenous GBP1 (IFNγ-treated THP-1 cells) (human (endogenous in THP-1)) (UniProt P32455); assay: cross-linking; GBP1 oligomerization assay: THP-1 cells (IFNγ±Dox; also ΔPIM1 or Δ14-3-3σ cells) lysed, GBP1 precipitated with CHAPS buffer, pellets cross-linked with 4 mM DSS for 30 minutes at room temperature, immunoblot
[3] = molecular target: phosphorylated Flag-GBP1 (GBP1pS156) purified from THP-1ΔGBP1+Tet-Flag-GBP1 WT cells (human) (UniProt P32455); assay: co-IP; semi-quantitative co-immunoprecipitation: purified phosphorylated Flag-GBP1 bound to Flag(M2)-agarose beads, incubated with different concentrations of purified HA-14-3-3 proteins for 1 hour at 4°C in 25 mM HEPES pH 7.3, 100 mM NaCl, 0.01% Triton X-100, 5% glycerol, 1 mM DTT; blots …
[4] = molecular target: T1, phosphorylated Flag-GBP1 (GBP1pS156) purified from THP-1ΔGBP1+Tet-Flag-GBP1 WT cells (human, UniProt P32455 1-592, phosphoserine at 156); assay: GBP1 phosphorylated at S156; semi-quantitative co-IP
T1 chain: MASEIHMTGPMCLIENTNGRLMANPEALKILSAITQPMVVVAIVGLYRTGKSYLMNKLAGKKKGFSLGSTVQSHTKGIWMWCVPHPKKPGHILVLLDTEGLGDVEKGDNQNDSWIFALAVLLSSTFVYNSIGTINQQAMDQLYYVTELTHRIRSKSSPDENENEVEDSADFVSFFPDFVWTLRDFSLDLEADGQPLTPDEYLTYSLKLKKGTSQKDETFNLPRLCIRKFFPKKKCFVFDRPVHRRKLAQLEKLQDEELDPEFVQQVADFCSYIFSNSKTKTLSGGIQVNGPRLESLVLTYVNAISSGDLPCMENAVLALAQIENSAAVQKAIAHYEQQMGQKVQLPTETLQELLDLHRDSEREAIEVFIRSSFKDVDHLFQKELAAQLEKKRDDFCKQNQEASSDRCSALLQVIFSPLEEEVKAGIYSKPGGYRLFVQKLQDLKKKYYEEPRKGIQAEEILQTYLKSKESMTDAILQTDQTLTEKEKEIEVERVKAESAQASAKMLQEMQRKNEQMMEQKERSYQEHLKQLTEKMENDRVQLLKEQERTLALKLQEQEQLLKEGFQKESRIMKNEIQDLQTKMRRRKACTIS

[5] = molecular target: the molecule itself; assay: cross-linking; GBP1 oligomerization assay: THP-1 cells (IFNγ±Dox; also ΔPIM1 or Δ14-3-3σ cells) lysed, GBP1 precipitated with CHAPS buffer, pellets cross-linked with 4 mM DSS for 30 minutes at room temperature, immunoblot

For “recombinant GBP1 (non-phosphorylated) (from UniProt P32455 1-592) (natural protein)”, the stoichiometry N [1] was 2.

GBP1 (from UniProt P32455) S156A was tested, and the “binding against the reference” value (14-3-3β) was “lost”, the “binding against the reference” value (14-3-3γ) was “lost” and the “binding against the reference” value (14-3-3ε) was “lost”. The “binding against the reference” value (14-3-3η) was “lost”, the “binding against the reference” value (14-3-3σ) was “lost” and the “binding against the reference” value (14-3-3ζ) was “lost”. The “binding against the reference” value (14-3-3θ) was “lost”.

“endogenous GBP1 (IFNγ-treated THP-1 cells) (from UniProt P32455 1-592) (natural protein)” showed a stoichiometry N [2] of 2.

Molecule “HA-14-3-3σ (from UniProt P31947 1-248) (natural protein)” has a Kd [3] of 370 nM.

B1: HA-14-3-3β (natural protein)
chain: MTMDKSELVQKAKLAEQAERYDDMAAAMKAVTEQGHELSNEERNLLSVAYKNVVGARRSSWRVISSIEQKTERNEKKQQMGKEYREKIEAELQDICNDVLELLDKYLIPNATQPESKVFYLKMKGDYFRYLSEVASGDNKQTTVSNSQQAYQEAFEISKKEMQPTHPIRLGLALNFSVFYYEILNSPEKACSLAKTAFDEAIAELDTLNEESYKDSTLIMQLLRDNLTLWTSENQGDEGDAGEGEN
With B1 the Kd [4] was 2310 nM.

B2: HA-14-3-3γ (natural protein)
chain: MVDREQLVQKARLAEQAERYDDMAAAMKNVTELNEPLSNEERNLLSVAYKNVVGARRSSWRVISSIEQKTSADGNEKKIEMVRAYREKIEKELEAVCQDVLSLLDNYLIKNCSETQYESKVFYLKMKGDYYRYLAEVATGEKRATVVESSEKAYSEAHEISKEHMQPTHPIRLGLALNYSVFYYEIQNAPEQACHLAKTAFDDAIAELDTLNEDSYKDSTLIMQLLRDNLTLWTSDQQDDDGGEGNN
Molecule B2 has a Kd [4] of 4200 nM.

B3: HA-14-3-3ζ (natural protein)
chain: MDKNELVQKAKLAEQAERYDDMAACMKSVTEQGAELSNEERNLLSVAYKNVVGARRSSWRVVSSIEQKTEGAEKKQQMAREYREKIETELRDICNDVLSLLEKFLIPNASQAESKVFYLKMKGDYYRYLAEVAAGDDKKGIVDQSQQAYQEAFEISKKEMQPTHPIRLGLALNFSVFYYEILNSPEKACSLAKTAFDEAIAELDTLSEESYKDSTLIMQLLRDNLTLWTSDTQGDEAEAGEGGEN
With B3 the Kd [4] was 1120 nM.

B4: HA-14-3-3θ (natural protein)
chain: MEKTELIQKAKLAEQAERYDDMATCMKAVTEQGAELSNEERNLLSVAYKNVVGGRRSAWRVISSIEQKTDTSDKKLQLIKDYREKVESELRSICTTVLELLDKYLIANATNPESKVFYLKMKGDYFRYLAEVACGDDRKQTIDNSQGAYQEAFDISKKEMQPTHPIRLGLALNFSVFYYEILNNPELACTLAKTAFDEAIAELDTLNEDSYKDSTLIMQLLRDNLTLWTSDSAGEECDAAEGAEN
In the case of B4, the Kd [4] is reported as 1730 nM.

B5: HA-14-3-3ε (natural protein)
chain: MDDREDLVYQAKLAEQAERYDEMVESMKKVAGMDVELTVEERNLLSVAYKNVIGARRASWRIISSIEQKEENKGGEDKLKMIREYRQMVETELKLICCDILDVLDKHLIPAANTGESKVFYYKMKGDYHRYLAEFATGNDRKEAAENSLVAYKAASDIAMTELPPTHPIRLGLALNFSVFYYEILNSPDRACRLAKAAFDDAIAELDTLSEESYKDSTLIMQLLRDNLTLWTSDMQGDGEEQNKEALQDVEDENQ
B5 was tested, and the Kd [4] was 1860 nM.

B6: HA-14-3-3η (natural protein)
chain: MGDREQLLQRARLAEQAERYDDMASAMKAVTELNEPLSNEDRNLLSVAYKNVVGARRSSWRVISSIEQKTMADGNEKKLEKVKAYREKIEKELETVCNDVLSLLDKFLIKNCNDFQYESKVFYLKMKGDYYRYLAEVASGEKKNSVVEASEAAYKEAFEISKEQMQPTHPIRLGLALNFSVFYYEIQNAPEQACLLAKQAFDDAIAELDTLNEDSYKDSTLIMQLLRDNLTLWTSDQQDEEAGEGN
B6 was tested, and the Kd [4] was 6430 nM.

B7: GBP1^S156A (Dox-inducible, THP-1ΔGBP1+GBP1^S156A cells) (natural protein, human, UniProt P32455 1-592, looked up)
chain: MASEIHMTGPMCLIENTNGRLMANPEALKILSAITQPMVVVAIVGLYRTGKSYLMNKLAGKKKGFSLGSTVQSHTKGIWMWCVPHPKKPGHILVLLDTEGLGDVEKGDNQNDSWIFALAVLLSSTFVYNSIGTINQQAMDQLYYVTELTHRIRSKASPDENENEVEDSADFVSFFPDFVWTLRDFSLDLEADGQPLTPDEYLTYSLKLKKGTSQKDETFNLPRLCIRKFFPKKKCFVFDRPVHRRKLAQLEKLQDEELDPEFVQQVADFCSYIFSNSKTKTLSGGIQVNGPRLESLVLTYVNAISSGDLPCMENAVLALAQIENSAAVQKAIAHYEQQMGQKVQLPTETLQELLDLHRDSEREAIEVFIRSSFKDVDHLFQKELAAQLEKKRDDFCKQNQEASSDRCSALLQVIFSPLEEEVKAGIYSKPGGYRLFVQKLQDLKKKYYEEPRKGIQAEEILQTYLKSKESMTDAILQTDQTLTEKEKEIEVERVKAESAQASAKMLQEMQRKNEQMMEQKERSYQEHLKQLTEKMENDRVQLLKEQERTLALKLQEQEQLLKEGFQKESRIMKNEIQDLQTKMRRRKACTIS
notes: pLenti-Tet-GBP1 mutated by site-directed mutagenesis; also called phosphodeficient GBP1; source: THP-1ΔGBP1+Tet-GBP1 S156A, Dox-induced, in lysate
With B7 the “stoichiometry N” value [5] was 2.

B8: GBP1^R151A/R153A/K155A (kinase motif mutant, Dox-inducible in THP-1ΔGBP1) (natural protein, human, UniProt P32455 1-592, looked up)
chain: MASEIHMTGPMCLIENTNGRLMANPEALKILSAITQPMVVVAIVGLYRTGKSYLMNKLAGKKKGFSLGSTVQSHTKGIWMWCVPHPKKPGHILVLLDTEGLGDVEKGDNQNDSWIFALAVLLSSTFVYNSIGTINQQAMDQLYYVTELTHAIASASSPDENENEVEDSADFVSFFPDFVWTLRDFSLDLEADGQPLTPDEYLTYSLKLKKGTSQKDETFNLPRLCIRKFFPKKKCFVFDRPVHRRKLAQLEKLQDEELDPEFVQQVADFCSYIFSNSKTKTLSGGIQVNGPRLESLVLTYVNAISSGDLPCMENAVLALAQIENSAAVQKAIAHYEQQMGQKVQLPTETLQELLDLHRDSEREAIEVFIRSSFKDVDHLFQKELAAQLEKKRDDFCKQNQEASSDRCSALLQVIFSPLEEEVKAGIYSKPGGYRLFVQKLQDLKKKYYEEPRKGIQAEEILQTYLKSKESMTDAILQTDQTLTEKEKEIEVERVKAESAQASAKMLQEMQRKNEQMMEQKERSYQEHLKQLTEKMENDRVQLLKEQERTLALKLQEQEQLLKEGFQKESRIMKNEIQDLQTKMRRRKACTIS
notes: pLenti-Tet-GBP1 mutated by site-directed mutagenesis; source: THP-1ΔGBP1+Tet-GBP1 mutant, Dox-induced, in lysate
With B8 the “stoichiometry N” value [5] was 2.

B9: GBP1^R153A/P158A (14-3-3 binding motif mutant, Dox-inducible in THP-1ΔGBP1) (natural protein, human, UniProt P32455 1-592, looked up)
chain: MASEIHMTGPMCLIENTNGRLMANPEALKILSAITQPMVVVAIVGLYRTGKSYLMNKLAGKKKGFSLGSTVQSHTKGIWMWCVPHPKKPGHILVLLDTEGLGDVEKGDNQNDSWIFALAVLLSSTFVYNSIGTINQQAMDQLYYVTELTHRIASKSSADENENEVEDSADFVSFFPDFVWTLRDFSLDLEADGQPLTPDEYLTYSLKLKKGTSQKDETFNLPRLCIRKFFPKKKCFVFDRPVHRRKLAQLEKLQDEELDPEFVQQVADFCSYIFSNSKTKTLSGGIQVNGPRLESLVLTYVNAISSGDLPCMENAVLALAQIENSAAVQKAIAHYEQQMGQKVQLPTETLQELLDLHRDSEREAIEVFIRSSFKDVDHLFQKELAAQLEKKRDDFCKQNQEASSDRCSALLQVIFSPLEEEVKAGIYSKPGGYRLFVQKLQDLKKKYYEEPRKGIQAEEILQTYLKSKESMTDAILQTDQTLTEKEKEIEVERVKAESAQASAKMLQEMQRKNEQMMEQKERSYQEHLKQLTEKMENDRVQLLKEQERTLALKLQEQEQLLKEGFQKESRIMKNEIQDLQTKMRRRKACTIS
notes: as for B8
With B9 the “stoichiometry N” value [5] was 2.
